In IntAct's records for PubMed 32296183:

How the values were obtained:
kash5_human KASH5 = target: T1, kash5_human KASH5 (UniProt Q8N6L0)
T1 sequence: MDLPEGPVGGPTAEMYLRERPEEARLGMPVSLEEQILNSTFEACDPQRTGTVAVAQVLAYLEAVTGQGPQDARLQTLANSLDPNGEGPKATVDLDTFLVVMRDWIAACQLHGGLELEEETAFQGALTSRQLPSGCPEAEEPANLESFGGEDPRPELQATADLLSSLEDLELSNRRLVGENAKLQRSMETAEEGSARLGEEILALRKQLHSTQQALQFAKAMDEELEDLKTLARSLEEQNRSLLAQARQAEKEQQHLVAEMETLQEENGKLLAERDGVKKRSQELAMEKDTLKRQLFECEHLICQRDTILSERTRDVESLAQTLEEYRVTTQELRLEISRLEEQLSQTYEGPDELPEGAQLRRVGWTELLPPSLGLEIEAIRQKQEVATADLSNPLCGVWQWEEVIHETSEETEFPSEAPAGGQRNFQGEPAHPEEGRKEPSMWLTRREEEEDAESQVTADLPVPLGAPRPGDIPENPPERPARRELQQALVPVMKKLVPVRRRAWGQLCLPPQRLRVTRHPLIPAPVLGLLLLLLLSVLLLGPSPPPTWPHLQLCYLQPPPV

gpx8_human GPX8 = target: T2, gpx8_human GPX8 (UniProt Q8TED1)
T2 sequence: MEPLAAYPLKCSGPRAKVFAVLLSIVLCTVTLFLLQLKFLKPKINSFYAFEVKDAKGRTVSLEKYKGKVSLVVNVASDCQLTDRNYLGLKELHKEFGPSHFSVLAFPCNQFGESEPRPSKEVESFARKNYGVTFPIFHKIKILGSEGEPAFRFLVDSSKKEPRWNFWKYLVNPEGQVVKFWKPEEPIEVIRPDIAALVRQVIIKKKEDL

cxa8_human GJA8 = cxa8_human GJA8 (UniProt P48165)
Chain of cxa8_human GJA8 (P48165 whole entry): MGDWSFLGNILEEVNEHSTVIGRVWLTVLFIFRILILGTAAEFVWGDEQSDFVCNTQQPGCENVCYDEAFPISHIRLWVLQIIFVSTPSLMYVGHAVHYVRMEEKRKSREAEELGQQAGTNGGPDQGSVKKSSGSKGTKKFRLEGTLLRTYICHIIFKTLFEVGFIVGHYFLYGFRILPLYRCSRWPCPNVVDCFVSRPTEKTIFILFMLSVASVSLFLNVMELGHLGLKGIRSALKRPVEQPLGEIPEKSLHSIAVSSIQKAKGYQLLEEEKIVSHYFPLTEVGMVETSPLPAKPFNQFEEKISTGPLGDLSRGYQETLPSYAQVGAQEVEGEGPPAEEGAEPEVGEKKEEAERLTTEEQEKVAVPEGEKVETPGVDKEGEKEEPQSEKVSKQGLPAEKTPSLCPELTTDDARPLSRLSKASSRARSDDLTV

cgrf1_human CGRRF1 = target: T3, cgrf1_human CGRRF1 (UniProt Q99675)
T3 sequence: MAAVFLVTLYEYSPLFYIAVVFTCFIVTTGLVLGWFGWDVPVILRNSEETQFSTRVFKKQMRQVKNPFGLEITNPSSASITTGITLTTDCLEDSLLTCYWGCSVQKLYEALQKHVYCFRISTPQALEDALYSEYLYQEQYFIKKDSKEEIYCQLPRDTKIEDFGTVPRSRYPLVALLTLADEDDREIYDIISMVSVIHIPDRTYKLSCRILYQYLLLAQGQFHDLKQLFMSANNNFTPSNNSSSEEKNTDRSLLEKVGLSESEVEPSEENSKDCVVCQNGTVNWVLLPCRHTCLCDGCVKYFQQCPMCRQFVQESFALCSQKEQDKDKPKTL

pdz1i_human PDZK1IP1 = target: T4, pdz1i_human PDZK1IP1 (UniProt Q13113)
T4 sequence: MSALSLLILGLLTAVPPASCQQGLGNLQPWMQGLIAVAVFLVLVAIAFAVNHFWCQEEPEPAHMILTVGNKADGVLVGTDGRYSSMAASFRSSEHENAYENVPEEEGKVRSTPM

FAM209A = target: T5, FAM209A (UniProt Q5JX71)
T5 sequence: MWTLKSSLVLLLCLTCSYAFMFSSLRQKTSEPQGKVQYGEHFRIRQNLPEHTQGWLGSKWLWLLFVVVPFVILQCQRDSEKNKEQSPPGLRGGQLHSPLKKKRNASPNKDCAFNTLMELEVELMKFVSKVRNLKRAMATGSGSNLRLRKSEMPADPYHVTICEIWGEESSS

ar13b_human ARL13B = ar13b_human ARL13B (UniProt Q3SXY8)
Chain of ar13b_human ARL13B (Q3SXY8 whole entry): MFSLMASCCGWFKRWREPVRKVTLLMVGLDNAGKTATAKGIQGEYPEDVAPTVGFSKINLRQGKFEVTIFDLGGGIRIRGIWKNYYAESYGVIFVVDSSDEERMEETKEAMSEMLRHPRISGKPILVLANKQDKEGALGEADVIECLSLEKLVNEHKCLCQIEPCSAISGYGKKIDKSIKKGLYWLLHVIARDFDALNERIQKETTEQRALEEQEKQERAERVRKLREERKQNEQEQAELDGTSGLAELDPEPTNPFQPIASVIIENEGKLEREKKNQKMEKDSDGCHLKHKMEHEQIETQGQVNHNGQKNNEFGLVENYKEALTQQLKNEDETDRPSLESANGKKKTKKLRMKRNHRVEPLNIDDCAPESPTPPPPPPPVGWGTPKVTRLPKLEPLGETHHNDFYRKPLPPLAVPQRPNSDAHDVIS

In the case of “Acyltransferase PGAP2 (Homo sapiens) (from UniProt Q9UHJ9-5) T160I”, the “effect of a mutation on the interaction” value (kash5_human KASH5) is reported as “disrupting interaction strength”, the “effect of a mutation on the interaction” value (gpx8_human GPX8) is reported as “with no effect” and the “effect of a mutation on the interaction” value (cxa8_human GJA8) is reported as “with no effect”. The “effect of a mutation on the interaction” value (cgrf1_human CGRRF1) was “with no effect”, the “effect of a mutation on the interaction” value (pdz1i_human PDZK1IP1) was “with no effect” and the “effect of a mutation on the interaction” value (FAM209A) was “with no effect”. For the same substance, the “effect of a mutation on the interaction” value (ar13b_human ARL13B) was “with no effect”.
